Test results: patent publication US20210179715A1 (Genentech, published 2021)
Where “and” joins values, the source holds several entries; their conditions need not be identical. Identical values can stand only once. Like-named read-outs stand apart in the source and are kept apart here.

Assays:
[1] = molecular target: T1, LY6G6D on HT55 cells (human, UniProt O95868 20-104); test: cell-based or functional assay
T1 sequence: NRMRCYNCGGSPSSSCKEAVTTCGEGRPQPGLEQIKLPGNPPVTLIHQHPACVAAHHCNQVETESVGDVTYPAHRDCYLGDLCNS

[2] = molecular target: T2, human LY6G6D-Fc (human, UniProt O95868 20-104); test: BIAcore SPR; two-cell TDB
T2 construct: also called hu Ly6G6D; huLY6G6D; not shown: linker and Fc part
T2 sequence: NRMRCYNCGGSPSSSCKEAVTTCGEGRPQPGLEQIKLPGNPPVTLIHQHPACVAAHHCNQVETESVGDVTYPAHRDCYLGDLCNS

[3] = molecular target: T3, human extracellular domain (ECD) of CD3 (human, UniProt P07766 23-126); test: BIAcore SPR; two-cell TDB
T3 construct: extracellular domain; also called huCD3
T3 sequence (P07766 23-126): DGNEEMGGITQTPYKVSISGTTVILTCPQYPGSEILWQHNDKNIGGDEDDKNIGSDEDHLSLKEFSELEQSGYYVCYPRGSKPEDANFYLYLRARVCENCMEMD

[4] = molecular target: T4, cyno extracellular domain (ECD) of CD3 (cynomolgus monkey, UniProt Q95LI5 22-117); test: BIAcore SPR; two-cell TDB
T4 construct: extracellular domain; also called CyCD3
T4 sequence (looked up): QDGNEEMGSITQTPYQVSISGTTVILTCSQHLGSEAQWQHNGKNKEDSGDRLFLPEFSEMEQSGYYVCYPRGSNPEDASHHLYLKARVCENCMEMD

[5] = molecular target: T2, human LY6G6D-Fc; test: BIAcore SPR; LY6G6D-Fc on chip; TDB flowed; 37 C
Protocol: The humanized rb.20A12 variant 20A12.QNTv12, the humanized rb.6E10 variant 6E10.v114, and the anti-LY6G6D 1G4 arm were paired with the anti-CD3 38E4v1 or 40G5c arm as TDBs and tested for affinity to human and cynomolgus LY6G6D in a BIAcore® assay. Rabbit 20Al2, rabbit 6E10, and humanized 20A12.QNTv12 and 20A12.SNVv12 were additionally assayed for binding as antigen-binding fragments (Fabs). LY6G6D-Fc was directly immobilized on a chip, and TDBs were flowed through at 37° C., except for the rb6E10 Fab, which was assayed at 25° C.

[6] = molecular target: T2, human LY6G6D-Fc; test: BIAcore SPR; LY6G6D-Fc on chip; TDB flowed; 37 C; remark: listed apart in the source
Protocol: TDBs comprising the anti-LY6G6D arm 20Al2.QNTv12 and the anti-CD3 38E4.v1 (left panel; produced using a two-cell-manufacturing system), 38E4.v1 MD1 (center panel; produced using a one-cell-manufacturing system), or 38E4.v1 MD4 arm (right panel; produced using a one-cell-manufacturing system) were assayed for affinity for a human Ly6G6D polypeptide (FIG. 25) using a BIAcore assay.

[7] = molecular target: T5, 27mer human CD3 polypeptide conjugated to biotin (human, conjugated to biotin (site not stated)); test: BIAcore T200 SPR; biotin 27mer CD3 peptide on SA chip; TDB flowed; 37 C
T5 construct: The assay text says only '27mer human CD3 polypeptide'; also called HuCD3e pept biotin
T5 peptide: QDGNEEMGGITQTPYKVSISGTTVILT
Protocol: The MD1 and MD4 variants thus retained the high affinity of 38E4v1. Assays were performed using a BIAcore T200: 27mer human and cyno CD3 polypeptides were conjugated to biotin and were immobilized on a SA CM5 chip, and TDBs were flowed through at 100 μl/min at 37° C.

[8] = molecular target: T5, 27mer human CD3 polypeptide conjugated …; test: as above
Protocol: Assays were performed using a BIAcore T200. 27mer human and cyno CD3 polypeptides were conjugated to biotin and were immobilized on a SA CM5 chip. LY6G6D TDBs were flowed through at 37° C.

B1: LY6G6D TDB comprising the anti-LY6G6D 20A12.QNTv12 arm (two-cell) and the anti-CD3 38E4v1 arm (bispecific antibody, V domains shown)
VH 1: EVQLLESGGGLVQPGGSLRLSCAASGFDFVNNAMIWVRQAPGKGLEWVSALSFADNTAYYATWASGRFTISRDSSKTTVYLQMNSLRAEDTAVYYCMRGDLWGPGTLVTVSS
VL 1: DIQMTQSPSTLSASVGDRVTITCQASESITRYLNWYQQKPGKAPKLLIYDASKLPSGVPSRFSGSGSGTEFTLTISSLQPDDFATYYCQSTSFRGRSYQNTFGGGTKVEIK
VH 2: EVQLVQSGAEVKKPGASVKVSCKASGFTFTSYYIHWVRQAPGQGLEWIGWIYPENDNTKYNEKFKDRVTITADTSTSTAYLELSSLRSEDTAVYYCARDGYSRYYFDYWGQGTLVTVSS
VL 2: DIVMTQSPDSLAVSLGERATINCKSSQSLLNSRTRKNYLAWYQQKPGQSPKLLIYWTSTRKSGVPDRFSGSGSGTDFTLTISSLQAEDVAVYYCKQSFILRTFGQGTKVEIK
notes: Full-length IgG1 kappa; also called hu20A12.QNTv12/38E4v1 TDB; 20A12.QNTv12/38E4v1
- average CD8+T cell activation EC50 [1]: ~87 ng/ml and ~583 pM
- average cell killing EC50 [1]: ~1.04 ng/ml and ~7 pM
- Kd [2]: 2.02 nM
- Kd [3]: 20 nM
- Kd [4]: 15 nM
- Kd [5]: 2.02 nM
- koff [5]: 0.000444 s⁻¹
- kon [5]: 220000 M⁻¹ s⁻¹
- Kd [6]: 1.39 nM
- koff [6]: 0.000416 s⁻¹
- kon [6]: 299000 M⁻¹ s⁻¹
- Kd [7]: 17.6 nM and 21.9 nM
- koff [7]: 0.0429 s⁻¹ and 0.0486 s⁻¹
- kon [7]: 2.44e+06 M⁻¹ s⁻¹ and 2.22e+06 M⁻¹ s⁻¹
- Kd [8]: 19.8 nM
